Test results reported in the supplement of paper PMC7877785.
± gives the uncertainty stated by the source.

Test: self-splicing fitness, log relative to wild type (ln ratio); higher = more splicing; Tetrahymena group I intron in knt gene, E. coli kanamycin selection, DiMSum; sequences stand for … in CUCUCU…GGAGGGAAAAGUUAUCAGGCAUGCACCUGGUAGCUAGUCUUUAAACCAAUAGAUUGCAUCGGUUUAAAAGGCAAGACCGUCAAAUUGCGGGAAAGGGGUCAACAGCCGUUCAGUACCAAGUCUCAGGGGAAACUUUGAGAUGGCCUUGCAAAGGGUAUGGUAAUAAGCUGACGGACAUGGUCCUAACCACGCAGCCAAGUCCUAAGUCAACAGAUCUUCUGUUGAUAUGGAUGCAGUUCACAGACUAAAUGUCGGUCGGGGAAGAUGUAUUCUUCUCAUAAGAUAUAGUCGGACCUCUCCUUAAUGGGAGCUAGCGGAUGAAGUGAUGCAACACUGGAGCCGCUGGGAACUAAUUUGUAUGCGAAAGUAUAUUGAUUAGUUUUGGAGUACUCGUGGUCG
Procedure, shortened: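 Six replicate transformations of E. coli BL21(DE3) with a pET-22b(+) library were grown overnight at 37°C or 30°C. The library randomised all eight P1ex-region intron nucleotides, the intron lying in the knt kanamycin-resistance gene, and plates were LB agar with or without 25 μg/mL kanamycin plus 100 μg/mL carbenicillin, 50 μM IPTG and 0.2% rhamnose. Pooled colonies were amplicon-sequenced on an Illumina HiSeq 2500, and fitness is the DiMSum error-weighted combination of wild-type-normalised replicate fold changes, kanamycin versus none.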

Sequence | self-splicing fitness (ln) (30 °C) | self-splicing fitness (ln) (37 °C)
GCAAAGCAAUAUUACGCUAC | -2.2 ± 0.16 | -2.09 ± 0.26
CGAAAGCAAUAUUACGCGCA | -0.957 ± 0.12 | -0.435 ± 0.13
ACCUAGCAAUAUUACGAUAU | -1.58 ± 0.092 | -0.443 ± 0.12
CAAUAGCAAUAUUACGCUUC | -4.65 ± 0.36 | -2.95 ± 0.35
UAUAAGCAAUAUUACGCUUC | -3.58 ± 0.38 | –
AGAGAGCAAUAUUACGCGAG | -2.97 ± 0.34 | –
CUACAGCAAUAUUACGAUGA | -3.02 ± 0.19 | -2.13 ± 0.14
CGACAGCAAUAUUACGUUGC | -3.9 ± 0.37 | -2.35 ± 0.36
GCCUAGCAAUAUUACGACAA | -2.19 ± 0.23 | -2.22 ± 0.32
AGAAAGCAAUAUUACGCUUC | -1.58 ± 0.27 | -2.22 ± 0.39
AGCCAGCAAUAUUACGCUAG | -2.97 ± 0.25 | -2.81 ± 0.25
CCUGAGCAAUAUUACGAGAC | -2.85 ± 0.33 | -0.69 ± 0.33
CCGGAGCAAUAUUACGCGGA | -3.34 ± 0.23 | -2.74 ± 0.29
AGUGAGCAAUAUUACGACUG | -0.0618 ± 0.23 | 0.551 ± 0.31
AAGCAGCAAUAUUACGGCGC | -0.59 ± 0.2 | -1.02 ± 0.19
ACUCAGCAAUAUUACGUCGA | -3.15 ± 0.25 | -1.94 ± 0.18
UAUCAGCAAUAUUACGUCAU | -1.88 ± 0.13 | -1.42 ± 0.15
UUAAAGCAAUAUUACGCACU | -0.0158 ± 0.068 | 0.681 ± 0.095
CCAUAGCAAUAUUACGACUC | -3.37 ± 0.32 | -2.18 ± 0.28
AACCAGCAAUAUUACGGCGC | -0.046 ± 0.068 | -0.103 ± 0.086
UGUCAGCAAUAUUACGGAAC | -3.82 ± 0.2 | -2.23 ± 0.3
AGUCAGCAAUAUUACGCCGG | -2.86 ± 0.48 | –
GUAAAGCAAUAUUACGGCCA | -0.497 ± 0.11 | 0.704 ± 0.17
UCCGAGCAAUAUUACGAUAU | -1.5 ± 0.22 | -2.46 ± 0.41
UUGGAGCAAUAUUACGAAAG | -2.5 ± 0.33 | -2.08 ± 0.37
AUCCAGCAAUAUUACGUGAU | -2.15 ± 0.1 | -1.04 ± 0.12

Sequence | self-splicing fitness (ln) (30 °C) | self-splicing fitness (ln) (37 °C)
UGGUAGCAAUAUUACGCCCA | -0.775 ± 0.21 | -1.14 ± 0.23
UCGGAGCAAUAUUACGGCUG | -2.33 ± 0.18 | -1.5 ± 0.19
ACUGAGCAAUAUUACGUACG | -2.42 ± 0.22 | -2.07 ± 0.25
CGCGAGCAAUAUUACGCGGU | -3.56 ± 0.3 | -2.79 ± 0.18
GCAAAGCAAUAUUACGGAGA | -2.82 ± 0.45 | –
ACUCAGCAAUAUUACGAACU | -0.166 ± 0.053 | 0.599 ± 0.066
AGGCAGCAAUAUUACGCGGC | -3.85 ± 0.24 | -2.39 ± 0.17
CCGAAGCAAUAUUACGACAG | -0.797 ± 0.098 | -0.282 ± 0.12
GGGCAGCAAUAUUACGUUCC | -2.68 ± 0.23 | -2.58 ± 0.37
GUCGAGCAAUAUUACGCGAG | -0.678 ± 0.096 | -0.901 ± 0.12
AGCCAGCAAUAUUACGCAUC | -3.75 ± 0.2 | -3.03 ± 0.17
GCGGAGCAAUAUUACGACUC | -2.06 ± 0.25 | -0.372 ± 0.34
GCCGAGCAAUAUUACGCAGA | -3.39 ± 0.47 | -2.39 ± 0.29
GAAAAGCAAUAUUACGCCUA | -1.15 ± 0.11 | -0.681 ± 0.099
UCUUAGCAAUAUUACGGGCA | -0.387 ± 0.14 | -0.119 ± 0.16
UAGCAGCAAUAUUACGCCCC | -1.6 ± 0.23 | -1.56 ± 0.31
UAUCAGCAAUAUUACGUACU | -1.57 ± 0.089 | -0.383 ± 0.1
CACCAGCAAUAUUACGAUCG | -0.326 ± 0.059 | 0.608 ± 0.085
UCCUAGCAAUAUUACGCUUA | -2.77 ± 0.23 | -3.22 ± 0.35
GCCCAGCAAUAUUACGGUUA | -0.529 ± 0.054 | 0.488 ± 0.062
CGCAAGCAAUAUUACGAGCG | -3 ± 0.38 | -2.52 ± 0.44
AAGAAGCAAUAUUACGCCUC | -1.82 ± 0.26 | -1.85 ± 0.27
CCGGAGCAAUAUUACGCCAC | -3.02 ± 0.49 | 0.445 ± 0.34
GAUCAGCAAUAUUACGCACC | -0.91 ± 0.18 | -0.086 ± 0.23
GGACAGCAAUAUUACGCAGC | -1.1 ± 0.083 | -0.558 ± 0.085
GUGUAGCAAUAUUACGCACG | -3.57 ± 0.27 | -2.25 ± 0.22

Sequence | self-splicing fitness (ln) (30 °C) | self-splicing fitness (ln) (37 °C)
GGAAAGCAAUAUUACGGACA | -0.913 ± 0.092 | 0.104 ± 0.097
ACUCAGCAAUAUUACGCUGA | -3.74 ± 0.3 | -3.15 ± 0.34
AUACAGCAAUAUUACGAUAG | -2.57 ± 0.18 | -3 ± 0.34
ACCCAGCAAUAUUACGCGUU | -0.424 ± 0.049 | 0.328 ± 0.066
GCGAAGCAAUAUUACGCCUU | – | -1.5 ± 0.26
ACCAAGCAAUAUUACGGAGA | -3.16 ± 0.15 | -1.66 ± 0.11
UAUUAGCAAUAUUACGGAGG | -2.95 ± 0.28 | -1.84 ± 0.34
UUUUAGCAAUAUUACGGCAA | 0.145 ± 0.12 | -0.398 ± 0.15
GGUCAGCAAUAUUACGGUAU | -0.344 ± 0.11 | 0.218 ± 0.13
UUCGAGCAAUAUUACGAAGC | -2.63 ± 0.33 | -1.91 ± 0.36
CACGAGCAAUAUUACGGUGU | -3.93 ± 0.22 | -2.33 ± 0.21
CCGCAGCAAUAUUACGGUGU | -3.97 ± 0.16 | -1.89 ± 0.14
CAAGAGCAAUAUUACGGACA | -3.46 ± 0.26 | -2 ± 0.32
UUCAAGCAAUAUUACGCCCG | -1.16 ± 0.1 | -0.594 ± 0.15
CAGUAGCAAUAUUACGUAUC | -3.18 ± 0.33 | -2.2 ± 0.25
UCAAAGCAAUAUUACGCGAU | – | -1.64 ± 0.23
CAGGAGCAAUAUUACGUCAA | -3.36 ± 0.2 | -3.44 ± 0.33
AAUGAGCAAUAUUACGCACA | -2.31 ± 0.29 | -1.38 ± 0.2
UACUAGCAAUAUUACGAGUC | -2.67 ± 0.31 | -1.09 ± 0.14
UACGAGCAAUAUUACGAGCG | -1.12 ± 0.13 | -0.262 ± 0.14
UGAUAGCAAUAUUACGCAGU | -2.93 ± 0.44 | -2.51 ± 0.27
UGCUAGCAAUAUUACGUGCA | -2.54 ± 0.32 | -1.99 ± 0.28
GUGGAGCAAUAUUACGCGAC | -2.22 ± 0.48 | –
CCCUAGCAAUAUUACGCACU | -2.43 ± 0.15 | -2.64 ± 0.24
CCACAGCAAUAUUACGAACA | -2.78 ± 0.24 | -2.33 ± 0.29
